Experimental data: article PMC3325275, “Molecular Mechanism Underlying the Interaction of Typical Sac10b Family Proteins with DNA” (PLoS ONE, 2012)
Substitutions are numbered along the chain they refer to.

Legend:
[1] = biological target: T1, Mth10b N11KI39RT77R N11K;I39R;T77R (Methanobacterium thermoautotrophicum ΔH) (UniProt O27527); assay: SPR; conditions: SPR (BIAcore 3000, SA chip): 20 mM Tris, 1 mM EDTA, 0.005% Tween20, pH 7.5, with 0, 0.1 or 0.3 M NaCl, 25°C
T1 sequence: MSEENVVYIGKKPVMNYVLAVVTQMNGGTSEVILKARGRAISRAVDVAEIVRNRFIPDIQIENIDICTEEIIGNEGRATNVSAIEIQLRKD

[2] = biological target: T2, Mth10b T77R T77R (Methanobacterium thermoautotrophicum ΔH) (UniProt O27527); assay: SPR; conditions: SPR (BIAcore 3000, SA chip): 20 mM Tris, 1 mM EDTA, 0.005% Tween20, pH 7.5, with 0, 0.1 or 0.3 M NaCl, 25°C
T2 sequence: T1 sequence with K11N, R39I

[3] = biological target: T3, Mth10b wild type (Methanobacterium thermoautotrophicum ΔH) (UniProt O27527); assay: SPR; conditions: SPR (BIAcore 3000, SA chip): 20 mM Tris, 1 mM EDTA, 0.005% Tween20, pH 7.5, with 0, 0.1 or 0.3 M NaCl, 25°C
T3 sequence: T1 sequence with K11N, R39I, R77T

[4] = system: Mth10b I39R (Methanobacterium thermoautotrophicum ΔH); assay: SPR; conditions: SPR (BIAcore 3000, SA chip): 20 mM Tris, 1 mM EDTA, 0.005% Tween20, pH 7.5, with 0, 0.1 or 0.3 M NaCl, 25°C
[5] = system: Mth10b N11K (Methanobacterium thermoautotrophicum ΔH); assay: SPR; conditions: SPR (BIAcore 3000, SA chip): 20 mM Tris, 1 mM EDTA, 0.005% Tween20, pH 7.5, with 0, 0.1 or 0.3 M NaCl, 25°C
[6] = system: Mth10b N11KI39RT77R (Methanobacterium thermoautotrophicum ΔH); assay: SPR; conditions: SPR (BIAcore 3000, SA chip): 20 mM Tris, 1 mM EDTA, 0.005% Tween20, pH 7.5, with 0, 0.1 or 0.3 M NaCl, 25°C
[7] = system: Mth10b T77R (Methanobacterium thermoautotrophicum ΔH); assay: SPR; conditions: no NaCl; apparent KD; SPR (BIAcore 3000, SA chip): 20 mM Tris, 1 mM EDTA, 0.005% Tween20, pH 7.5, with 0, 0.1 or 0.3 M NaCl, 25°C
[8] = biological target: the molecule itself; assay: crystal structure; purified Mth10b at ~10 mg/ml in 10 mM HEPES pH 7.2, 150 mM NaCl; hanging drop at 4°C over 0.1 M NaCl, 1.6 M (NH4)2SO4, 0.1 M HEPES pH 7.5; 2.2 Å; dimer formed about a crystallographic two-fold axis
[9] = 0.1 M NaCl, slight cooperativity

With “GTGATGTCAGAGGAGAATGTAGTATACATCGGAAACAAGCCTGTAATGAACTATGTTCTGGCCGTGGTTACTCAGATGAACGGTGGGACCAGTGAAGTGATCCTTAAAGC (double strand) [110 bp mth10b fragment]” the Kd [1] was 700 nM, the Kd [2] was 16 µM and the binding [3] was “no binding”.

In the case of 110 bp mth10b fragment, the Kd [4, 9] is reported as 6.5 µM, the Kd ([4]; no NaCl, apparent KD) is reported as 0.26 µM and the Kd ([5]; 0.1 M NaCl, marked cooperativity) is reported as 30 µM. It also gave a Kd ([5]; no NaCl, apparent KD) of 2.1 µM, a Kd [6, 9] of 700 nM and a fold decrease in affinity (fold lower affinity than in 0.1 M NaCl) ([6]; 0.3 M NaCl, high cooperativity) of 70. The Kd [7] was 16 µM.

B1: Mth10b from Methanobacterium thermoautotrophicum ΔH (natural protein, UniProt O27527 1-91, looked up)
chain: T1 sequence with K11N, R39I, R77T
notes: Mth10b, atypical Sac10b (Alba) family member of Methanobacterium thermoautotrophicum ΔH, gene mth10b (MTH1483); 91 residues in total, C-terminal residue Asp91; expressed from pET11a-mth10b; the structure model covers 86 of the 91 residues; also called wild type Mth10b; source: E. coli BL21 (DE3), purified
In the case of B1, the “stoichiometry N” value [8] is reported as 2.
